Experiment [1] concerns the target T1, Methanocaldococcus jannaschii RecJ2 (MJ0831) (Methanocaldococcus jannaschii (strain …, UniProt Q58241)).
T1 chain: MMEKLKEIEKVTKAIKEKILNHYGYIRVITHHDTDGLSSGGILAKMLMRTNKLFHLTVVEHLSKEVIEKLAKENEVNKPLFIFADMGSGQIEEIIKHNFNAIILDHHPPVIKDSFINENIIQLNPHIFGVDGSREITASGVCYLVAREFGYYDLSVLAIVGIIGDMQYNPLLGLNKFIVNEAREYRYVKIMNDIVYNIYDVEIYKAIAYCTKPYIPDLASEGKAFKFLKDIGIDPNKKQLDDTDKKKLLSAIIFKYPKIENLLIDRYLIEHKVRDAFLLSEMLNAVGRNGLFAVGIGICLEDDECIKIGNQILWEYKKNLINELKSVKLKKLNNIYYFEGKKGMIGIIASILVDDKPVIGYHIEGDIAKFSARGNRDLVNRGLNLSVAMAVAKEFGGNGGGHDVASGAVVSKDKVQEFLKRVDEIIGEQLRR
Nature of the experiment: Ni-NTA pulldown (co-purification).

Experiment [2] deals with T1, Methanocaldococcus jannaschii RecJ2 …. Briefly: gel filtration (Superdex 200); MST also negative.

B1: Methanocaldococcus jannaschii GINS (MJ0248), 6×His tag and sumo domain removed (protein)
chain: MRVFIIIIYFRCFSKDHKPYFVITMYESLKNYFFEEIKNDKLLKLPDDFYDDIREYIKNIKDDIELERVKYYFKELRKLRIYKALYLDNERENLLPEELNIIHAIENIVVELKIEETPEFKKPTEIDTPKPIYTINDIDVVKVDKNFPPFTDGTFIYDLNKNDVLSLDRKISHILEKHRIISRIGESYENPEES
Take B1: in experiment [1], the binding result is recorded as “no binding”.

B2: Methanocaldococcus jannaschii GINS (MJ0248), tag state not stated (protein)
chain: MRVFIIIIYFRCFSKDHKPYFVITMYESLKNYFFEEIKNDKLLKLPDDFYDDIREYIKNIKDDIELERVKYYFKELRKLRIYKALYLDNERENLLPEELNIIHAIENIVVELKIEETPEFKKPTEIDTPKPIYTINDIDVVKVDKNFPPFTDGTFIYDLNKNDVLSLDRKISHILEKHRIISRIGESYENPEES
With B2, the binding result in experiment [2] was “no binding”.

The record behind these values is article PMC5615345 (2017).
